Data on six molecules can be found in patent US20240366776A1 (Hoffmann-La Roche, published 2024).

Substitutions are numbered along the chain they refer to.

One experiment deals with PD-1 (human, UniProt Q15116 25-167, limits assumed). Description: HTRF.
In experiment [1] the target is T1, human IL-2 (human, UniProt P60568 21-153, biotin-labeled in the IL2RB blocking assay).
T1 construct: also called biotin-labeled IL-2 (Acro Biosystems IL2-H82E4)
Description: HTRF.

For experiment [2], the target named is T1, human IL-2. Description: HTRF IL-2:IL2RB.
The target in a further experiment is PD-1-Fc (UniProt Q15116 25-167, limits assumed). In words: cell-based or functional assay.
Chain of PD-1-Fc (Q15116 25-167 limits assumed): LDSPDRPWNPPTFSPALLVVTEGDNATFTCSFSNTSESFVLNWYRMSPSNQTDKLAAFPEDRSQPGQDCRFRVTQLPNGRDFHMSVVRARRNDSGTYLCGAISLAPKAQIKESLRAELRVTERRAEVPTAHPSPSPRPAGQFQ

T1 sequence (P60568 21-153 limits assumed): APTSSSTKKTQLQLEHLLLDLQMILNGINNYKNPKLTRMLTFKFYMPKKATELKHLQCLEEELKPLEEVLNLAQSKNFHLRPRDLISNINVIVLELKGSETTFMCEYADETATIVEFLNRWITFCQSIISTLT
Chain of PD-1 (Q15116 25-167 limits assumed): as the sequence (Q15116 25-167 limits assumed) above

B1: PD1-IL2-R06-E04 (SEQ ID NO: 33) (scFv)
scFv: QVQLVQSGAEVKKPGASVKVSCKASGYTFTRYYIHWVRQAPGQGLEWMGWINAYNGDTNYAQKLQGRVTMTRDTSTSTVYMELSSLRSEDTAVYYCARDSYYYDSFDYWGQGTLVTVSSASGGGGSGGGGSGGGGSHASDIQMTQSPSSLSASVGDRVTITCRASQTITDWLAWYQQKPGKAPKLLIYGASNLQGGVPSRFSGSGSGTDFTLTISSLQPEDFATYYCQQYYSSWTFGQGTKVEIK
notes: V5-tagged in the assay
Take B1: the “PD1 Binding” value with PD-1 came out at 50. Further, the “IL2 Binding” value with human IL-2 [1] amounted to 247. Further, the “IL2RB Blocking” value with human IL-2 [2] came to 1110.

B2: AF4387 (other)
heavy 1: APTSSSTKKTQLQLEHLLLDLQMILNGINNYKNPKLTDMLTFEFYMPKKATELKHLQCLERELKPLEEVLNLAQSKNFHLRPRDLISNINVIVLELKGSETTFMCEYADETATIVEFLNRWITFCQSIISTLTGGGGSGGGGSGGGGSGGGGSQVQLVQSGAEVKKPGASVKVSCKASGYTFTDYYMHWVRQAPGQGLEWMGIINPRAGYTSYALKFQGRVTMTRDTSTSTVYMELSSLRSEDTAVYYCTSGWDVWGQGTLVTVSSAKTTAPSVYPLAPVCGDTTGSSVTLGCLVKGYFPEPVTLTWNSGSLSSGVHTFPAVLQSDLYTLSSSVTVTSSTWPSQSITCNVAHPASSTKVDKKIEPRGPTIKPCPPCKCPAPNAAGGPSVFIFPPKIKDVLMISLSPIVTCVVVDVSEDDPDVQISWFVNNVEVHTAQTQTHREDYNSTLRVVSALPIQHQDWMSGKEFKCKVNNKDLGAPIERTISKPKGSVRAPQVYVLPPPEEEMTKKQVTLTCMVTDFMPEDIYVEWTNNGKTELNYKNTEPVLDSDGSYFMYSDLRVEKKNWVERNSYSCSVVHEGLHNHHTTESFSRTPGK
heavy 2: QVQLVQSGAEVKKPGASVKVSCKASGYTFTDYYMHWVRQAPGQGLEWMGIINPRAGYTSYALKFQGRVTMTRDTSTSTVYMELSSLRSEDTAVYYCTSGWDVWGQGTLVTVSSAKTTAPSVYPLAPVCGDTTGSSVTLGCLVKGYFPEPVTLTWNSGSLSSGVHTFPAVLQSDLYTLSSSVTVTSSTWPSQSITCNVAHPASSTKVDKKIEPRGPTIKPCPPCKCPAPNAAGGPSVFIFPPKIKDVLMISLSPIVTCVVVDVSEDDPDVQISWFVNNVEVHTAQTQTHREDYNSTLRVVSALPIQHQDWMSGKEFKCKVNNKDLGAPIERTISKPKGSVRAPQVYVLPPPEKEMTKKQVSLTCLVKDFMPEDIYVEWTNNGKTELNYKNTEPVLKSDGSYFMYSKLTVEKKNWVERNSYSCSVVHEGLHNHHTTKSFSRTPGGGGSGGGSHHHHHH
light: DIQMTQSPSSLSASVGDRVTITCRASQSISTWLAWYQQKPGKAPKLLIYAASSLDSGVPSRFSGSGSGTDFTLTISSLQPEDFATYYCQQSYSFPVTFGQGTKVEIKRADAAPTVSIFPPSSEQLTSGGASVVCFLNNFYPKDINVKWKIDGSERQNGVLNSWTDQDSKDSTYSMSSTLTLTKDEYERHNSYTCEATHKTSTSPIVKSFNRNEC
As to B2, in the experiment with PD-1-Fc, the “IL-2 activity EC50, HEK-Blue IL-2 reporter cells, IgG1 coated wells (control)” value (shortened to “IL-2 activity EC50 … (control)”) was 0.419 nM and the “IL-2 activity EC50, HEK-Blue IL-2 reporter cells, PD-1 coated wells” value (from here on “IL-2 activity EC50 … PD-1 coated wells”) was 0.057 nM.

B3: AF4386 (other)
heavy 1: APTSSSTKKTQLQLEHLLLDLQMILNGINNYKNPKLTDMLTFEFYMPKKATELKHLQCLERELKPLEEVLNLAQSKNFHLRPRDLISNINVIVLELKGSETTFMCEYADETATIVEFLNRWITFCQSIISTLTGGGGSGGGGSGGGGSGGGGSQVQLVQSGAEVKKPGASVKVSCKASGDTFTRYYVHWVRQAPGQGLEWMGIINPSGGYASYAQKFQGRVTMTRDTSTSTVYMELSSLRSEDTAVYYCAAGLFIWGQGTLVTVSSAKTTAPSVYPLAPVCGDTTGSSVTLGCLVKGYFPEPVTLTWNSGSLSSGVHTFPAVLQSDLYTLSSSVTVTSSTWPSQSITCNVAHPASSTKVDKKIEPRGPTIKPCPPCKCPAPNAAGGPSVFIFPPKIKDVLMISLSPIVTCVVVDVSEDDPDVQISWFVNNVEVHTAQTQTHREDYNSTLRVVSALPIQHQDWMSGKEFKCKVNNKDLGAPIERTISKPKGSVRAPQVYVLPPPEEEMTKKQVTLTCMVTDFMPEDIYVEWTNNGKTELNYKNTEPVLDSDGSYFMYSDLRVEKKNWVERNSYSCSVVHEGLHNHHTTESFSRTPGK
heavy 2: QVQLVQSGAEVKKPGASVKVSCKASGDTFTRYYVHWVRQAPGQGLEWMGIINPSGGYASYAQKFQGRVTMTRDTSTSTVYMELSSLRSEDTAVYYCAAGLFIWGQGTLVTVSSAKTTAPSVYPLAPVCGDTTGSSVTLGCLVKGYFPEPVTLTWNSGSLSSGVHTFPAVLQSDLYTLSSSVTVTSSTWPSQSITCNVAHPASSTKVDKKIEPRGPTIKPCPPCKCPAPNAAGGPSVFIFPPKIKDVLMISLSPIVTCVVVDVSEDDPDVQISWFVNNVEVHTAQTQTHREDYNSTLRVVSALPIQHQDWMSGKEFKCKVNNKDLGAPIERTISKPKGSVRAPQVYVLPPPEKEMTKKQVSLTCLVKDFMPEDIYVEWTNNGKTELNYKNTEPVLKSDGSYFMYSKLTVEKKNWVERNSYSCSVVHEGLHNHHTTKSFSRTPGGGGSGGGSHHHHHH
light: DIQMTQSPSSLSASVGDRVTITCRASQSIGRYLAWYQQKPGKAPKLLIYSASNLETGVPSRFSGSGSGTDFTLTISSLQPEDFATYYCQQYNSFPVTFGPGTKVDIKRADAAPTVSIFPPSSEQLTSGGASVVCFLNNFYPKDINVKWKIDGSERQNGVLNSWTDQDSKDSTYSMSSTLTLTKDEYERHNSYTCEATHKTSTSPIVKSFNRNEC
As for B3, in the experiment with PD-1-Fc, the “IL-2 activity EC50 … (control)” value was 1.79 nM and the “IL-2 activity EC50 … PD-1 coated wells” value came to 0.05 nM.

B4: AF4389 (other)
heavy 1: B3 heavy 1 with D180H, V187M, S212T, A251S
heavy 2: B3 heavy 2 with D27H, V34M, S59T, A98S
light: B2 light with S30N, T31S, A51T, S53T, D55E, S91Y, S93R
Take B4: in the experiment with PD-1-Fc, the “IL-2 activity EC50 … (control)” value was found to be 1.67 nM and the “IL-2 activity EC50 … PD-1 coated wells” value came out at 0.118 nM.

B5: PD1-R07-A05 (scFv)
scFv: QVQLVQSGAEVKKPGASVKVSCKASGYTFTTYYVHWVRQAPGQGLEWMGIINPSGGSTSYAQNFQGRVTMTRDTSTSTVYMELSSLRSEDTAVYYCASGWDVWGQGTTVTVSSASGGGGSGGGGSGGGGSHASEIVMTQSPATLSVSPGERATLSCRASQSVNTYLAWYQQKPGQAPRLLIYGASTRATGIPARFSGSGSGTEFTLTISSLQSEDFAVYYCQQYGSSPVTFGQGTRLEIK
Consider B5, for which, in the experiment with PD-1, the “PD1 Binding” value worked out at 653. The same molecule registered an IL2 Binding with human IL-2 [1] of 19. The IL2RB Blocking with human IL-2 [2] is 1730.

B6: AF4404 (other)
heavy 1: QVQLVESGGGVVQPGRSLRLDCKASGITFSNSGMHWVRQAPGKGLEWVAVIWYDGSKRYYADSVKGRFTISRDNSKNTLFLQMNSLRAEDTAVYYCATNDDYWGQGTLVTVSSAKTTAPSVYPLAPVCGDTTGSSVTLGCLVKGYFPEPVTLTWNSGSLSSGVHTFPAVLQSDLYTLSSSVTVTSSTWPSQSITCNVAHPASSTKVDKKIEPRGPTIKPCPPCKCPAPNAAGGPSVFIFPPKIKDVLMISLSPIVTCVVVDVSEDDPDVQISWFVNNVEVHTAQTQTHREDYNSTLRVVSALPIQHQDWMSGKEFKCKVNNKDLGAPIERTISKPKGSVRAPQVYVLPPPEEEMTKKQVTLTCMVTDFMPEDIYVEWTNNGKTELNYKNTEPVLDSDGSYFMYSDLRVEKKNWVERNSYSCSVVHEGLHNHHTTESFSRTPGGGGGSGGGGSGGGGSAPTSSSTKKTQLQLEHLLLDLQMILNGINNYKNPKLTDMLTFEFYMPKKATELKHLQCLERELKPLEEVLNLAQSKNFHLRPRDLISNINVIVLELKGSETTFMCEYADETATIVEFLNRWITFCQSIISTLT
heavy 2: QVQLVESGGGVVQPGRSLRLDCKASGITFSNSGMHWVRQAPGKGLEWVAVIWYDGSKRYYADSVKGRFTISRDNSKNTLFLQMNSLRAEDTAVYYCATNDDYWGQGTLVTVSSAKTTAPSVYPLAPVCGDTTGSSVTLGCLVKGYFPEPVTLTWNSGSLSSGVHTFPAVLQSDLYTLSSSVTVTSSTWPSQSITCNVAHPASSTKVDKKIEPRGPTIKPCPPCKCPAPNAAGGPSVFIFPPKIKDVLMISLSPIVTCVVVDVSEDDPDVQISWFVNNVEVHTAQTQTHREDYNSTLRVVSALPIQHQDWMSGKEFKCKVNNKDLGAPIERTISKPKGSVRAPQVYVLPPPEKEMTKKQVSLTCLVKDFMPEDIYVEWTNNGKTELNYKNTEPVLKSDGSYFMYSKLTVEKKNWVERNSYSCSVVHEGLHNHHTTKSFSRTPGGGGGSGGGGSGGGGSGGGGSQVQLVQSGAEVKKPGASVKVSCKASGYTFTDYYMHWVRQAPGQGLEWMGIINPRAGYTSYALKFQGRVTMTRDTSTSTVYMELSSLRSEDTAVYYCTSGWDVWGQGTLVTVSSASGGGGSGGGGSGGGGSHASDIQMTQSPSSLSASVGDRVTITCRASQSISTWLAWYQQKPGKAPKLLIYAASSLDSGVPSRFSGSGSGTDFTLTISSLQPEDFATYYCQQSYSFPVTFGQGTKVEIKGGGSGGGSHHHHHH
light: EIVLTQSPATLSLSPGERATLSCRASQSVSSYLAWYQQKPGQAPRLLIYDASNRATGIPARFSGSGSGTDFTLTISSLEPEDFAVYYCQQSSNWPRTFGQGTKVEIKRADAAPTVSIFPPSSEQLTSGGASVVCFLNNFYPKDINVKWKIDGSERQNGVLNSWTDQDSKDSTYSMSSTLTLTKDEYERHNSYTCEATHKTSTSPIVKSFNRNEC
As for B6, in the experiment with PD-1-Fc, the “IL-2 activity EC50 … PD-1 coated wells” value worked out at 0.026 nM and the “IL-2 activity EC50, HEK-Blue IL-2 reporter cells, control wells” value was 0.064 nM.
